The values that follow come from PMC11172336, “Exploring Syndecan-4 and MLP and Their Interaction in Primary Cardiomyocytes and H9c2 Cells” (Cells, 2024).

B1: biotinylated MLP-WT peptide aa 125-154 (peptide)
peptide: not shown
modifications: N-terminal biotin tag
notes: source: synthetic peptide (GenScript, >80% purity)
B2: MLP, endogenous in adult rat primary cardiomyocytes (natural protein, UniProt P50463 1-194, looked up)
chain: MPNWGGGAKCGACDKTVYHAEEIQCNGRSFHKTCFHCMACRKALDSTTVAAHESEIYCKVCYGRKYGPKGIGFGQGAGCLSTDTGEHLGLQFQQSPKPARAATTSNPSKFSAKFGESEKCPRCGKSVYAAEKVMGGGKPWHKTCFPCAICGKSLESTNVTDKDGELYCKVCYAKNFGPTGIGFGGLTHQVEKKE
notes: Muscle LIM Protein (MLP, CSRP3), rat; source: endogenous, enriched subcellular fractions of freshly isolated adult rat LV cardiomyocytes
B3: recombinant 6xHis-MLP Q91L (natural protein, human, UniProt P50461 1-194, looked up)
chain: B2 chain with D14E, K65R, F73Y, Q91L, A101S, A102V, S111T, P146R, H188Q
notes: Muscle LIM Protein (MLP, CSRP3), human, with a patient mutation; source: bought: GenScript (recombinant protein, >80% purity); not shown: His6, N-terminal, kept
B4: recombinant 6xHis-MLP R64C (natural protein, human, UniProt P50461 1-194, looked up)
chain: B2 chain with D14E, R64C, K65R, F73Y, A101S, A102V, S111T, P146R, H188Q
notes: as for B3
B5: recombinant 6xHis-MLP K69R (natural protein, human, UniProt P50461 1-194, looked up)
chain: B2 chain with D14E, K65R, K69R, F73Y, A101S, A102V, S111T, P146R, H188Q
notes: as for B3
B6: recombinant 6xHis-MLP G72R (natural protein, human, UniProt P50461 1-194, looked up)
chain: B2 chain with D14E, K65R, G72R, F73Y, A101S, A102V, S111T, P146R, H188Q
notes: as for B3
B7: recombinant 6xHis-MLP C58G (natural protein, human, UniProt P50461 1-194, looked up)
chain: B2 chain with D14E, C58G, K65R, F73Y, A101S, A102V, S111T, P146R, H188Q
notes: as for B3
B8: recombinant 6xHis-MLP-WT (natural protein, human, UniProt P50461 1-194, looked up)
chain: B2 chain with D14E, K65R, F73Y, A101S, A102V, S111T, P146R, H188Q
notes: Muscle LIM Protein (MLP), encoded by CSRP3, human, 194 amino acids; on the native blot a mixture of monomer, dimer, trimer and tetramer; also called full-length recombinant 6xHis-MLP-WT protein; Muscle LIM Protein; source: bought: GenScript (recombinant protein, >80% purity); not shown: His6, N-terminal, kept
B9: recombinant 6xHis-MLP W4R (natural protein, human, UniProt P50461 1-194, looked up)
chain: B2 chain with W4R, D14E, K65R, F73Y, A101S, A102V, S111T, P146R, H188Q
notes: Muscle LIM Protein (MLP, CSRP3), human, with a patient mutation; the eight mutated recombinant proteins are named in the abstract; source: bought: GenScript (recombinant protein, >80% purity); not shown: His6, N-terminal, kept
B10: recombinant 6xHis-MLP Y66C (natural protein, human, UniProt P50461 1-194, looked up)
chain: B2 chain with D14E, K65R, Y66C, F73Y, A101S, A102V, S111T, P146R, H188Q
notes: as for B3
B11: recombinant 6xHis-MLP L44P (natural protein, human, UniProt P50461 1-194, looked up)
chain: B2 chain with D14E, L44P, K65R, F73Y, A101S, A102V, S111T, P146R, H188Q
notes: as for B3
B12: biotinylated MLP-WT peptide aa 50-79 (peptide, UniProt P50461 50-79, looked up)
peptide: Biotin-AAHESEIYCKVCYGRRYGPKGIGYGQGAGC
modifications: cysteine pairing not given here
notes: Muscle LIM Protein (MLP, CSRP3), human, 30-mer, residues 50-79, covering the end of LIM1 and the NLS; also called MLP peptide aa 50–79; source: synthetic peptide (GenScript, >80% purity)

The target in the data set “recombinant 6xHis-MLP-WT” is B8. Kind of data set: ELISA; wells coated with 10 µg of WT or mutated full-length 6xHis-MLP recombinant protein in PBS; biotinylated overlapping MLP-WT 30-mer peptides at 2–5 µM for two hours at 37 °C; signal of PBS-coated wells subtracted. To be noted: both partners purified. (ELISA stands for enzyme-linked immunosorbent assay.)
The target of data set [1] is B11. Described as above. To be noted: both partners purified.
The target in data set [2] is B7. The data set is described as above. To be noted: both partners purified.
Data set [3] deals with the molecule itself. Briefly: immunoblotting under native conditions; 20 µg of cytoplasmic-, nuclear-, membrane- and cytoskeletal-enriched fractions of adult rat cardiomyocytes in native sample buffer, not boiled, SDS-containing running buffer; blot with C-terminal anti-MLP (#R06991).
Data set [4] deals with the molecule itself. Kind of data set: immunoblotting under native conditions; 0.5 µg of recombinant 6xHis-MLP WT or mutated protein in native sample buffer, not boiled, SDS-containing running buffer; blot with C-terminal anti-MLP (#R06991); densitometry. A general note: A western blot detects proteins with antibodies after separation by electrophoresis.

Where a chain is given by its changes, count along the chain named. “And” between values parts separate entries of the source, which are not always exact repeats. Equal values may be shown once. Where no end group is shown, it is not given here. The star is where a group is joined. Biotin = O=C1N[C@H]2[C@H](CS[C@H]2CCCCC(=O)*)N1

In the case of B1, the binding result (in the data set with recombinant 6xHis-MLP-WT; in data set [1]; in data set [2]) was “binds” each time.

As for B2, the stoichiometry N (usually a count of units in the complex or per binding partner) in data set [3] was 2 and 3 and 4.

Regarding B3, the binding result in data set [4] is listed as “binds”.

In the case of B4, in data set [4], the binding result was “binds”.

For B5, the binding result in data set [4] is reported as “binds”.

As for B6, the binding result in data set [4] is given as “binds”.

As for B7, the binding result in data set [4] was “binds”.

On to B8, for which, in data set [4], the “stoichiometry N” value is 2 and 3 and 4.

For B9, the binding result in data set [4] is given as “binds”.

With B10, in data set [4], the binding result is recorded as “binds”.

As to B11, the binding result in data set [4] is “binds”.

Take B12: the binding result (with recombinant 6xHis-MLP-WT; in data set [2]) was “binds” throughout.
